The text below walks through data of patent US11965032.

As usually defined, the Kd is the concentration at which binding is half-saturated. By EC50 is commonly meant the concentration at which the effect is half-maximal. Read a high EC50 as a less potent agent.

Assay [1] concerns the target FcγIIIA Receptor on the effector cells (human) (UniProt P08637). Briefly: cell-based or functional assay.
In assay [2] the target is FcγRIIIa 158F receptor (SPR assay) (UniProt P08637). Briefly: SPR, relative to the TG-1101 reference standard. For orientation: In SPR one partner is held on a chip, and binding of the other changes the refractive index at the surface.
Chain of FcγRIIIa 158F receptor (SPR assay) (P08637 17-208 limits assumed): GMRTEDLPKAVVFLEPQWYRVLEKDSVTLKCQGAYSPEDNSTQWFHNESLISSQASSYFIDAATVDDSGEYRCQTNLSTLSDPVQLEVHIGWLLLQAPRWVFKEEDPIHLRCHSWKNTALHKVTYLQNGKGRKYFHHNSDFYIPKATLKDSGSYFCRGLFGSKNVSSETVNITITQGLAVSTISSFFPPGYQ
Assay [3] addresses FcγRIIIa 158V receptor (SPR assay) (UniProt P08637). Briefly: SPR, relative to the TG-1101 reference standard.
Assay [4] has as its target FcRn (human Fc receptor panel, Octet) (human) (UniProt P55899). Briefly: BLI (Octet HTX), receptor on anti-penta-His biosensor, 1:1 model. Background: BLI is a label-free optical method that tracks binding on a fibre tip over time.
Assay [5] addresses FcγRI (human Fc receptor panel, Octet) (human) (UniProt P12314). Described as above.
Assay [6] concerns the target FcγRIIA (human Fc receptor panel, Octet) (human) (UniProt P12318). The assay is described as above.
The target of assay [7] is FcγRIIB/C (human Fc receptor panel, Octet) (human) (UniProt P31994). The description is as above.
Chain of FcγRIIB/C (human Fc receptor panel, Octet) (human) (P31994 46-217 limits assumed): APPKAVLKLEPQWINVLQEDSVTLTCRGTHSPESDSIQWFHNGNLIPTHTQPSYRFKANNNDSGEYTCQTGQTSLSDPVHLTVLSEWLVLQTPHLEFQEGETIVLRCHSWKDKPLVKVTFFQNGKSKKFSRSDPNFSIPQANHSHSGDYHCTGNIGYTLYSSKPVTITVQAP
Assay [8] concerns the target FcγRIIIA F158 (human Fc receptor panel, Octet) (human) (UniProt P08637). The description is as above.
Assay [9] concerns the target FcγRIIIA V158 (human Fc receptor panel, Octet) (human) (UniProt P08637). Described as above.
Assay [10] concerns the target FcγRIIIB (human Fc receptor panel, Octet) (human) (UniProt O75015). The description is as above.
Assay [11] has as its target FcγRIIIa 158V receptor (SPR assay) (UniProt P08637). Briefly: SPR, receptor amine-coupled to the chip, antibody injected, 1:1 kinetics.
In assay [12] the target is FcγRIIIa 158F receptor (SPR assay) (UniProt P08637). Briefly: SPR, receptor amine-coupled to the chip, antibody injected, steady state affinity.
Assay [13] deals with CD20 on Jeko-1, Raji and Daudi cells (human) (UniProt P11836). Briefly: cell-based MSD electrochemiluminescence binding assay on CD20 expressing Jeko-1 cells.
Chain of CD20 on Jeko-1, Raji and Daudi cells (human) (P11836 whole entry): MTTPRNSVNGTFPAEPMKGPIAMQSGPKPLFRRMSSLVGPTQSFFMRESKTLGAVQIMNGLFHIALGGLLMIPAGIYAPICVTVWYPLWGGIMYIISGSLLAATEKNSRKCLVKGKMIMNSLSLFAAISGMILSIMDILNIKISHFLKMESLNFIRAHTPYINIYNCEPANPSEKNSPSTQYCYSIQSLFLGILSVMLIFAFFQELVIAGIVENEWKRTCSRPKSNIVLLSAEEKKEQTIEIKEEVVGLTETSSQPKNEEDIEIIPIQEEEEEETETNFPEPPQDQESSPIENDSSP
Assay [14] has as its target C1q in the complement system (rabbit serum as the source of complement) (rabbit). Briefly: cell-based or functional assay.
Assay [15] has as its target HRP conjugated human C1q (human) (UniProt P02745). Briefly: ELISA, antibody coated on the plate, HRP conjugated human C1q. (In general: An ELISA detects its analyte on a solid surface through an enzyme-linked reagent.)

Chain of FcRn (human Fc receptor panel, Octet) (human) (P55899 24-297 limits assumed, chain 1 of 2): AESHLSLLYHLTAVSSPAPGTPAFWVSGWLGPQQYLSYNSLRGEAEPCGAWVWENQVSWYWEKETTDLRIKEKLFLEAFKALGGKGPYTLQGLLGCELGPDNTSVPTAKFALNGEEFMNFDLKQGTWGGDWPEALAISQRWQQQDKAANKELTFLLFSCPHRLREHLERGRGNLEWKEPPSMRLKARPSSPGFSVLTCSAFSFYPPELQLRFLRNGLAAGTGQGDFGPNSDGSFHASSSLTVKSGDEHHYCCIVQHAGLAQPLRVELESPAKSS
Chain of FcRn (human Fc receptor panel, Octet) (human) (P61769 21-119 limits assumed, chain 2 of 2, further chain): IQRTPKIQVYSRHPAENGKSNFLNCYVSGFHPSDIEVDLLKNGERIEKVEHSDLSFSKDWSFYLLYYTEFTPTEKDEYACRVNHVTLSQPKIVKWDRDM
Chain of FcγIIIA Receptor on the effector cells (human) (P08637 17-254): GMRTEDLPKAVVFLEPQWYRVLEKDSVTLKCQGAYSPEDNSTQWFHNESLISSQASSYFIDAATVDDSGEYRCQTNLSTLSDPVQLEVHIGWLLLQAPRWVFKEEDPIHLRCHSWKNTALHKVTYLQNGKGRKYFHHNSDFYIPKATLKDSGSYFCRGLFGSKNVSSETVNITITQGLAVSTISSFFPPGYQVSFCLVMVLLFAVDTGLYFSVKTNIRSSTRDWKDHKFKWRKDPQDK
Chain of FcγRI (human Fc receptor panel, Octet) (human) (P12314 16-288 limits assumed): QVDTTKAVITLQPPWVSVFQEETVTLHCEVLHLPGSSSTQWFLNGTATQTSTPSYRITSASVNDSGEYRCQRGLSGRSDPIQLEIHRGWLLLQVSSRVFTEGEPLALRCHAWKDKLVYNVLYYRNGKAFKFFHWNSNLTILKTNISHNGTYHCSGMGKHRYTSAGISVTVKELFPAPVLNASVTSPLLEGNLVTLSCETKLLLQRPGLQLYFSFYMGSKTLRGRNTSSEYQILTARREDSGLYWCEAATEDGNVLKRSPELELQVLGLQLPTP
Chain of FcγRIIIa 158V receptor (SPR assay) (P08637 17-208 F176V limits assumed): as the sequence (P08637 17-208 limits assumed) above, with F160V counted along it
Chain of FcγRIIIA V158 (human Fc receptor panel, Octet) (human) (P08637 17-208 F176V limits assumed): as the sequence (P08637 17-208 limits assumed) above, with F160V counted along it
Chain of FcγRIIIA F158 (human Fc receptor panel, Octet) (human) (P08637 17-208 limits assumed): as the sequence (P08637 17-208 limits assumed) above
Chain of FcγRIIIB (human Fc receptor panel, Octet) (human) (O75015 17-200 limits assumed): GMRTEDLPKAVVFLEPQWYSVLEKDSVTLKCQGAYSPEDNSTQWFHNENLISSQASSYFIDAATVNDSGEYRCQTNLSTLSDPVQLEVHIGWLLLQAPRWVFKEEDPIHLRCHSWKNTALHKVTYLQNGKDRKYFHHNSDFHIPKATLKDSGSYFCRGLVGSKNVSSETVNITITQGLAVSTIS
Chain of FcγRIIA (human Fc receptor panel, Octet) (human) (P12318 36-218 limits assumed): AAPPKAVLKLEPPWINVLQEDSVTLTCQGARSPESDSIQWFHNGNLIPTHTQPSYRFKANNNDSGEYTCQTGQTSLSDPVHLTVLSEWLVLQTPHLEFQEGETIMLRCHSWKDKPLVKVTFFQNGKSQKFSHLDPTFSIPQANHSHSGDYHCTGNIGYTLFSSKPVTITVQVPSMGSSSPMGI
Chain of HRP conjugated human C1q (human) (P02745 23-245 limits assumed, chain 1 of 3): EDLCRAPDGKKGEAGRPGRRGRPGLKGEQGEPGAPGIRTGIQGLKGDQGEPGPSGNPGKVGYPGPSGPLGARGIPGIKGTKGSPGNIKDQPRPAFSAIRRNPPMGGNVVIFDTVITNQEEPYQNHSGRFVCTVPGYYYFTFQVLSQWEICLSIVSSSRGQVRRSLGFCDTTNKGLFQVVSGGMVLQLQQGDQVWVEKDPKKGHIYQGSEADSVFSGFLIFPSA
Chain of HRP conjugated human C1q (human) (P02746 28-253 limits assumed, chain 2 of 3, further chain): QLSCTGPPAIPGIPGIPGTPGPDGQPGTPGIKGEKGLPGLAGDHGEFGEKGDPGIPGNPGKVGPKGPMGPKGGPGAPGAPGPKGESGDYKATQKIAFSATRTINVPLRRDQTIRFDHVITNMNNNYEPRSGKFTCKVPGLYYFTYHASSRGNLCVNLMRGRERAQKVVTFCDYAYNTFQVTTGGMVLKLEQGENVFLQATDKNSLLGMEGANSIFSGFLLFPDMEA
Chain of HRP conjugated human C1q (human) (P02747 29-245 limits assumed, chain 3 of 3, further chain): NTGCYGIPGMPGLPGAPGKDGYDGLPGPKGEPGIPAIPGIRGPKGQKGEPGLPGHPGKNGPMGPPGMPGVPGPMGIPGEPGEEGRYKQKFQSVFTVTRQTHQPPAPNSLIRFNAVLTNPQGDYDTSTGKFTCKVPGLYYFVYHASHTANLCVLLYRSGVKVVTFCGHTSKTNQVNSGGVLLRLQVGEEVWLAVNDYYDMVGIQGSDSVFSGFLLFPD

GAZYVA (obinutuzumab) (antibody) showed an ADCC EC50 (Raji target cells, KILR CD16a effector cells) in assay [1] of 0.00658 ng/mL. In assay [1], this substance registered an EC50 of ADCC assay Using Primary NK Cells (Raji target cells, LDH release) of 19 µg/mL. Besides, the figures for the Relative Affinity (%) in [2] and in assay [3] were 37.6% and 27.6%, respectively. The Relative Binding (%) is 33% in assay [2] and 19.6% in assay [3]. Also, the Kd in assay [4] worked out at 39 nM; in assay [5], 26 nM; in [6], 281 nM; in assay [7], 225 nM; in assay [8], 98 nM; in [9], 40 nM. The Kd in assay [10] amounted to 277 nM; in [11], 242 nM; in [12], 1790 nM. The substance also returned an EC50 in assay [13] of 0.053 µg/mL.
Substance ARZERRA (ofatumumab) (antibody) gave a CDC EC50 (Jeko-1 cells, rabbit serum complement) in assay [14] of 0.353 µg/mL. This substance gave an ADCC EC50 (Raji target cells, KILR CD16a effector cells) in [1] of 0.0741 ng/mL. In assay [1], this substance gave an EC50 of ADCC assay Using Primary NK Cells (Raji target cells, LDH release) of 500 µg/mL. The Kd in assay [4] is 64 nM; in assay [5], 21 nM; in assay [6], 232 nM; in [7] it was 156 nM; in assay [8] it was 482 nM; in assay [9], 207 nM. Moreover, the results for the Kd in assay [10], in [11] and in [12] were 307 nM, 1640 nM and 14800 nM, respectively. The substance further came in with a half-maximal effective concentration (EC50) in [13] of 0.092 µg/mL.
For RITUXAN (rituximab) (antibody), in assay [14], the CDC EC50 (Jeko-1 cells, rabbit serum complement) was found to be 0.245 µg/mL. This substance also gave an ADCC EC50 (Raji target cells, KILR CD16a effector cells) in assay [1] of 5.46 ng/mL. In addition, the EC50 of ADCC assay Using Primary NK Cells (Raji target cells, LDH release) in assay [1] turned out to be 1390 µg/mL. In addition, the Kd in assay [4] worked out at 43 nM; in assay [5] it was 15 nM; in assay [6], 253 nM; in [7], 211 nM; in assay [10], 309 nM; in [11], 1200 nM. In [12], this substance showed a dissociation constant Kd of 6960 nM. Besides, the EC50 in [13] amounted to 0.133 µg/mL.
Take OCREVUS (ocrelizumab) (antibody): the CDC EC50 (Jeko-1 cells, rabbit serum complement) in assay [14] worked out at 1.21 µg/mL. In addition, the ADCC EC50 (Raji target cells, KILR CD16a effector cells) in [1] worked out at 0.0608 ng/mL. The EC50 in [15] is 2.9 µg/mL. Further, the Kd in assay [4] was determined as 62 nM; in assay [5] it was 19 nM; in assay [6], 624 nM; in [7], 362 nM; in assay [8], 592 nM; in assay [9], 138 nM. In addition, the Kd in assay [10] amounted to 2090 nM; in [11] it was 1030 nM; in assay [12], 6760 nM.
